From patent US20150267232A1, “IN VIVO AND IN VITRO CARBENE INSERTION AND NITRENE TRANSFER REACTIONS CATALYZED BY HEME ENZYMES” (California Institute of Technology, priority 2012, published 2015) come the findings set out here.

Assay [1] is described as follows: Small-scale anaerobic C—H amination with purified enzymes, azide 4. It is filed as biochemical. As to the method: Hemin also was capable of catalyzing this reaction when reduced with dithionite (Table 13).
Small scale reactions containing either 0.1% loading of ABC-CIS or ABC-T268A or 1% loading of hemin with azides 1, 4, or 6 according to standard procedures.
Small-scale reactions (400 μL) were conducted in 2 mL crimp vials (Agilent Technologies, San Diego, Calif.) containing buffer (0.1 M potassium phosphate pH 8.0), enzyme (0.1-0.5% catalyst loading) and oxygen depletion system (10× stock solution containing 14,000 U/mL catalase, 1,000 U/mL glucose oxidase dissolved in 0.1 M KPi pH 8.0). Enzyme (P450 or P411) solution and oxygen depletion mixture were added to the vial with a small stir bar before crimp-sealing. Portions of phosphate buffer (190 μL, 0.1 M, pH=8.0), glucose (40 μL, 250 mM) and NADPH (40 μL, 20 mM), or multiples thereof, were combined in a larger crimp sealed vial and degassed by sparging with argon for at least 5 min. In the meantime, the headspace of the sealed 2 mL reaction vial with the P450 solution was made anaerobic by flushing argon over the protein solution (with no bubbling). The buffer/reductant/glucose solution (270 μL) was syringed into the reaction vial with continuous argon purge of the vial headspace. An arylsulfonyl azide solution in DMSO (10 μL, 80 mM) was added to the reaction vial via a glass syringe, and the reaction was left stirring for 24 h at room temperature under positive argon pressure. Final concentrations of the reagents were typically: 2 mM arylsulfonyl azide, 2 mM NADPH, 25 mM glucose, 2 or 10 μM P450. Reactions were quenched by adding 30 μL 3 M HCl under argon. To the vials were then added acetonitrile (430 uL) and internal standard (o-toluenesulfonamide 10 mM in 50% acetonitrile 50% water, 1 mM final concentration). […] A portion (20 μL) of the supernatant was then analyzed by HPLC. […] Sultam formation was quantified comparison of integrated peak areas of internal standard and sultam at 220 nm to a calibration curve made using synthetically produced sultam and internal standard.

Assay [2] is described as follows: Small-scale anaerobic C—H amination with purified enzymes, azide 1. It is filed as biochemical. As to conditions: for Product (3) / TTN on substrate 1: 1% loading of hemin; for % ee: 0.1 mol % catalyst loading, (S−R)/(S+R). The method, boiled down:
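Purified P450 or P411 enzymes (0.1-0.5% catalyst loading) in 400 μL reactions of 0.1 M potassium phosphate pH 8.0 with a catalase/glucose oxidase oxygen-depletion system were made anaerobic under argon, given 10 μL of 80 mM arylsulfonyl azide in DMSO, and stirred 24 h at room temperature. After HCl quench and acetonitrile addition, sultam was quantified by HPLC at 220 nm against an internal standard; enantioselectivity was measured by chiral HPLC.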

Setting [3] is: 0.1 mol % catalyst loading (2 μM), 2 mM azide 1, 2 mM NADPH, benzosultam 3.
Setting [4] is: catalyst loading 0.5 mol %, NADPH, anaerobic.

Numbering of substitutions follows the chain as printed. In names and notes the source's numbering stands. Several values for one entry are separate records, joined by “and”; a condition that tells them apart may be missing. Equal entries are not always repeated.

Consider hemin, for which, in assay [1] (free hemin, 1% loading), the “activity on substrate 4” value is “no measurable activity”. Besides, the “Product (3) / TTN on substrate 1” value in assay [2] is 3.1; in assay [2] (listed as hemin) it was 3. Besides, the “% activity” value in assay [2] (CS-P450 + Hemin) is given as 0%. Besides, the TTN in assay [2] (CS-P450 + Hemin (2 μM hemin)) is recorded as 0. Also, the “stereochemical outcome of product 3” value in assay [2] (reaction with hemin) is reported as “racemic”.

B1: ABC-CIS: BM3-CIS + C400S (protein, listed as Bacillus megaterium)
chain: TIKEMPQPKTFGELKNLPLLNTDKPVQALMKIADELGEIFKFEAPGRVTRYLSSQRLIKEACDESRFDKNLSQALKFARDFAGDGLVTSWTHEKNWKKAHNILLPSFSQQAMKGYHAMMVDIAVQLVQKWERLNADEHIEVSEDMTRLTLDTIGLCGFNYRFNSFYRDQPHPFIISMVRALDEVMNKLQRANPDDPAYDENKRQFQEDIKVMNDLVDKIIADRKARGEQSDDLLTQMLNGKDPETGEPLDDGNIRYQIITFLIAGHEATSGLLSFALYFLVKNPHVLQKVAEEAARVLVDPVPSYKQVKQLKYVGMVLNEALRLWPTAPAFSLYAKEDTVLGGEYPLEKGDEVMVLIPQLHRDKTVWGDDVEEFRPERFENPSAIPQHAFKPFGNGQRASIGQQFALHEATLVLGMMLKHFDFEDHTNYELDIKETLTLKPKGFVVKAKSKKIPLGGIPSPSTEQSAKKVRKKAENAHNTPLLVLYGSNMGTAEGTARDLADIAMSKGFAPQVATLDSHAGNLPREGAVLIVTASYNGHPPDNAKQFVDWLDQASADEVKGVRYSVFGCGDKNWATTYQKVPAFIDETLAAKGAENIADRGEADASDDFEGTYEEWREHMWSDVAAYFNLDIENSEDNKSTLSLQFVDSAADMPLAKMHGAFSTNVVASKELQQPGSARSTRHLEIELPKEASYQEGDHLGVIPRNYEGIVNRVTARFGLDASQQIRLEAEEEKLAHLPLAKTVSVEELLQYVELQDPVTRTQLRAMAAKTVCPPHKVELEALLEKQAYKEQVLAKRLTMLELLEKYPACEMKFSEFIALLPSIRPRYYSISSSPRVDEKQASITVSVVSGEAWSGYGEYKGIASNYLAELQEGDTITCFISTPQSEFTLPKDPETPLIMVGPGTGVAPFRGFVQARKQLKEQGQSLGEAHLYFGCRSPHEDYLYQEELENAQSEGIITLHTAFSRMPNQPKTYVQHVMEQDGKKLIELLDQGAHFYICGDGSQMAPAVEATLMKSYADVHQVSEADARLWLQQLEEKGRYAKDVWAG
modifications: cytochrome P450NADPH-P-450 reductase precursor, cytochrome P450 (BM3), CYP102A1
notes: BM3-CIS + C400S
For the molecule B1, the “Product (5)” value in assay [1] (0.1% loading, azide 4) turned out to be 26. The “Product (3)” value in assay [2] (0.1% loading, azide 1, TTN) came to 310. Besides, the TTN in assay [2] (setting [3]) is 313 and 310; in assay [2] ([NADPH] 0 mM), 0; in assay [2] ([NADPH] 0.01 mM), 27; in assay [2] ([NADPH] 0.02 mM), 82; in assay [2] ([NADPH] 0.1 mM) it was 243; in assay [2] ([NADPH] 2 mM) it was 161. In assay [2] (benzosultam 3), the “% ee” value is on record as 67%. Besides, the “[sultam]” value in assay [2] ([NADPH] 0 mM) was 0 mM; in assay [2] ([NADPH] 0.01 mM), 0.053 mM; in assay [2] ([NADPH] 0.02 mM) it was 0.164 mM; in assay [2] ([NADPH] 0.1 mM), 0.486 mM; in assay [2] ([NADPH] 2 mM, 0.1 mol % loading), 0.322 mM. Also, the “TTN (C—H amination product 3)” value in assay [2] (setting [4]) is listed as “over 140”. Also, in assay [2] (setting [4]), the “yield of 3 by HPLC” value was 73%.

B2: P450BM3: wild-type cytochrome P450BM3 from Bacillus megaterium (SEQ ID NO: 1) (protein, listed as Bacillus megaterium)
chain: TIKEMPQPKTFGELKNLPLLNTDKPVQALMKIADELGEIFKFEAPGRVTRYLSSQRLIKEACDESRFDKNLSQALKFVRDFAGDGLFTSWTHEKNWKKAHNILLPSFSQQAMKGYHAMMVDIAVQLVQKWERLNADEHIEVPEDMTRLTLDTIGLCGFNYRFNSFYRDQPHPFITSMVRALDEAMNKLQRANPDDPAYDENKRQFQEDIKVMNDLVDKIIADRKASGEQSDDLLTHMLNGKDPETGEPLDDENIRYQIITFLIAGHETTSGLLSFALYFLVKNPHVLQKAAEEAARVLVDPVPSYKQVKQLKYVGMVLNEALRLWPTAPAFSLYAKEDTVLGGEYPLEKGDELMVLIPQLHRDKTIWGDDVEEFRPERFENPSAIPQHAFKPFGNGQRACIGQQFALHEATLVLGMMLKHFDFEDHTNYELDIKETLTLKPEGFVVKAKSKKIPLGGIPSPSTEQSAKKVRKKAENAHNTPLLVLYGSNMGTAEGTARDLADIAMSKGFAPQVATLDSHAGNLPREGAVLIVTASYNGHPPDNAKQFVDWLDQASADEVKGVRYSVFGCGDKNWATTYQKVPAFIDETLAAKGAENIADRGEADASDDFEGTYEEWREHMWSDVAAYFNLDIENSEDNKSTLSLQFVDSAADMPLAKMHGAFSTNVVASKELQQPGSARSTRHLEIELPKEASYQEGDHLGVIPRNYEGIVNRVTARFGLDASQQIRLEAEEEKLAHLPLAKTVSVEELLQYVELQDPVTRTQLRAMAAKTVCPPHKVELEALLEKQAYKEQVLAKRLTMLELLEKYPACEMKFSEFIALLPSIRPRYYSISSSPRVDEKQASITVSVVSGEAWSGYGEYKGIASNYLAELQEGDTITCFISTPQSEFTLPKDPETPLIMVGPGTGVAPFRGFVQARKQLKEQGQSLGEAHLYFGCRSPHEDYLYQEELENAQSEGIITLHTAFSRMPNQPKTYVQHVMEQDGKKLIELLDQGAHFYICGDGSQMAPAVEATLMKSYADVHQVSEADARLWLQQLEEKGRYAKDVWAG
modifications: cytochrome P450NADPH-P-450 reductase precursor, cytochrome P450 (BM3), CYP102A1
Molecule B2 had a TTN in assay [2] (setting [3]) of 2.1. Further, the “TTN (C—H amination product 3)” value in assay [2] (setting [4]) stood at 4.

B3: BM3-T268A: P450BM3 variant: T268A (protein, listed as Bacillus megaterium)
chain: B2 chain with T268A
modifications: cytochrome P450NADPH-P-450 reductase precursor, cytochrome P450 (BM3), CYP102A1
Consider B3, for which, in assay [2] (setting [3]), the TTN turned out to be 15. Besides, the “% ee” value in assay [2] (benzosultam 3) was determined as 36%. Also, in assay [2] (NADPH (2 mM), 0.1 mol % loading, azide 1), the “activity with reductant NADPH” value is given as 22. For the same molecule, the “TTN (C—H amination product 3)” value in assay [2] (setting [4]) turned out to be 28. For the same molecule, the “activity with reductant Dithionite” value in assay [2] (dithionite (2 mM), 0.1 mol % loading, azide 1) was 25.
